# The RNAGym collection of RNA variant scans (doi:10.1073/pnas.2313332121)
# This sample holds only a part of the variants without activity.
# B1: TPR 5TU (parent)
# chain: GGAUCUUCUCGAUCUAACAAAAAAGACAAAUCUGCCACAAAGCUUGAGAGCAUCUUCGGAUGCAGAGGCGGCAGCCUUCGGUGGCGCGAUAGCGCCAACGUUCUCAACUAUGACACGCAAAACGCGUGCUCCGUUGAAUGGAGUUUAUCAUG
# Variants of: B1
# Assay: polymerase ribozyme fitness, log enrichment relative to wild type (log ratio); higher = more active; in vitro selection for triplet polymerase activity
# In short: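 Mutant libraries for each subunit of a heterodimeric triplet polymerase ribozyme were made by PCR and then transcribed. Each library underwent one round of in vitro selection in triplicate: annealing with a biotinylated primer, the partner subunit and triplets, frozen incubation at −7 °C, gel excision of extended constructs, streptavidin-bead capture and RT-PCR. Input and output libraries were Illumina-sequenced, and only genotypes with ≥10 input reads and ≥1 read per output were kept. Fitness is the logarithm, base 2, of genotype enrichment over wild-type enrichment, computed from inverse-variance-weighted replicate averages.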
row,Variant,polymerase ribozyme fitness (log ratio)
1,GGAUCUUCUCGAUCUAACAAAAAAGACAAAUCUGCCACGAAACUUGAGAGCAUCUUCGGAUGCAGAGGCGGCAGCCUUCGUUGGCGAGAUAGCUCCAACGUUCUCAACUAUGACACGCAAAACGCGUGCUCCGUUGAAUGGAGUUUAUCAUG,≤ -4.2
2,GGAUCUUCUCGAUCUAACAAAAAAGUCAAAUCUGCCACAAAGCUUGAGAGCAUCGACGGAUGCAGAGGCGGCAGCCUUCGGUGGCGUGAUAGCGCUAACGUUCUCAACUAUGACACGCAAAACGCGUGCUCCGUUGAAUGGAGUUUAUCAUG,-3.35
3,GGAUCUUCUCGAUCUAAGAAAAAAGACAAAUUUGCCGCAAAGCUUGAGAGCAUCUUCGGGUGCAGAGGCGGCAGUCUUCGGUGGCGCGAUAGCGCUAACGUUCUCAACUAUGACACGCAAAACGCGUGCUCCGUUGAAUGGAGUUUAUCAUG,≤ -4.2
4,GGAUCUUCUCGAUCUAACAAAAAAGACAAAUCUGCCACAAAGCUUGAGAGCAUCUUCGGAUGCAGAGGCGGCAGCCUUCGGUGACGCGAUAGGGCCAACGUUCUCAACUAUGACACGCAAAACGAGUGCUCCUUUGAAUGGAGUUUAUCAUG,≤ -4.2
5,GGAUCUUCUCGAUCUAACAAAAAAGACAAAUCUGCCACAAAGCUUGAGAGCAUCUUCGGAUGCAGAGGCGGCAGCCUUCGGUGGCGCGAUAGCGCGAACGUUCUCAACUAUGACACGCAAAACGCGUGCUCCGUUGAAUGGAAUUUAUCAUG,-2.42
6,GGAUCUUCUCGAUCUAACAAAAAAGACAAAUCUGCCACAAAGCUUGAGAGCAUCUUCGGAUGCAGAGGCGGCAGCCUUCGGUGGCGCGAUAGCGCCAACGUUCUCAACUAUGACACACAAAACGCGUGCUCCGUUGAAUGGAGUUUAUCCUG,-3.86
7,GGAUCUUCUCGAUCUAACAAAAAAGACAAAUCUGCCACAAAGCUUGAGAGCAUCUUCGGAUGCAGAGGCGGCAGCCUUCGGUGGUGCGUUAGCGCCAACGUUCUCAACUAUGACACGCAAAACGCGUGCUCCGUUGAAUGGAGUUUAUCAUG,-0.431
8,GGAUCUUCUCGAUCUAACAAAAAAGACAAAUCUGCCACAAAGCUUGAGAGCAUCUUCGGACGCAGAGGCGGCAGCCUUCGGUGGUGCGAUAGCGCCAACGUUCUCAACUAUGACACGCAAAACGCGUGCUCCGUUGAAUGGAGUUUAUCAUG,-2.66
9,GGAUCUUCUCGAUUUAACAAAAAAGACAAAUCUGCCACAAAGCUUGAGAGCAUCUUCGGAUGCAGAGGCGGCAGCCUUCGGUGGCGCGAUAGCACCAACGUUCUCAAUUAUGACACGCAAAACGCGUGCUCCGUUGUAUGGAGUUUAUCAUG,-4.03
10,GGAUCUUAUCGAUCUAACAAAAAAGACAAAUCUGCCACAAAGCUUGAGAGCAUCUUCGGAUGCAGAGGCGGCAGCCUUCGGUGGCUCGAUAGCGCCAACGUUCUCAACUAUGACACGCAAAACGCGUGCUCCGUUGAAUGGAGUUUAUCAUG,-3.72
11,GGAUCUUCUCGACCUUACAAAAAAGACAAAUCAGCCACAAAGCUUGAGAGCAUGUUCGGAUGCAGACGCGGCAGCCUUCGGUGGCGCGAUAGCGCCAACGUUCUCAACUAUGACACGCAAAACGCGUGCUCCUUUGAAUGGAGAUUAUCAUG,≤ -4.2
12,GGAUCUUCUCGAUCUAACAAAAAAGACAAAUCUGCCACAAAGCUUGAGAGCAUCUUCGGAUGUAGAGGCGGCAGCCUUCGGUGGCGCGAUAGAGCCAACGUUCUCAACUAUGACACGCAAAACGCGUGCUCCGUUGAAUGGAGUUUAUCAUG,-3.69
13,GGAUCUUCUCGAUCUAACAAAAAAGAUAAAUCUGCCACAAAGCUUGAGAGCAUCUUCGGAUCUAGAGGCGGCAGCCUUCGGUGGCGCGAUAGCUCCAACGUUCCCAACUAUGACACGCAAAACGCGUGCUCCGUUGAAUGGAGUUUAUCAUU,≤ -4.2
14,GGAUUUUCUCGAUCUAACAAAAAAGACAAACCUGCCUCAAAGCUUGAGAGCAUCUUCGGAUGCAGAGGCGGCAGCGUUCGGUGGCGCGAUAGCGCCAACGUUCUCAACCAUGACACGCAAAACGCGUGCUCCGUCGAAUGGAGUUUAUCAUG,≤ -4.2
15,GGAUCUUCUCGAUCUAACAAAAAAGACAAAUCUGCCACAAAGCUUGAGAACCUCGUCGGAUGCAGAGGCGGCAGCCUUCGGUGGCGCGAUAGCGCCAACGUUCUCAACUAUGACACGCAAAACGCGUGCUCCGUUGAAUGCAGUUUAUCAUG,≤ -4.2
16,GGAUCUUCUCGAUCUAACAAAAAAGACAAAUCUGCCACAAAGCUUAAGGACUUCUUCGGAUGCAGAGGCGGCAGCCUUCGGUGGCGCGAUAGCGCUAACGUUCUCAACUAUGACACGCAAAAGGCGUGCUCCGUUGAAAGGACUUUAUCAUG,≤ -4.2
17,GGAUCUUCUCGAUCUAACAAAAUAGACAAAUCUGCCACAAAGCUUGAGAGCAUCUUCGGAUGCAGAGGCGGCAGCCUUCGGUGGCGCGAUAGGGCCAACGUUCUCAACUAUGACACGCAAAACGCGUGCUCCGUUGAAUGGAGUUUAUCAUG,≤ -4.2
18,GGAUCUUCUCGAUCUAACAAAAAAGACAAAUCUGCCACAAAGCUUGAGAGCAUCUUCGGAUGCAGAGGCGGCAGCCUUCGGUGGUGCGAUAGCGCCAACGUUCUCAACUAUGACACGCAAAACGCGUGCUCCGUUGAAUGGAGUUCAUCAUG,-0.574
19,GGACCUUCUCGAUCUAACAAAAAAGACAAAUCUGCCACAAAGCUUGAGACCAUCUUCGGAUACAGAGGCGGCAGCCUUCGGUGACGCGAUACCGCCAACGUUCUCAACUAUGACACGCAAAACGCGUGCUCCGUUGAAUGGAGUUUAUCAUG,≤ -4.2
